Experimental data as given in the NTF2 design screens of Basanta et al. (2020).

Experiment: protease stability score; higher = more stable; yeast display proteolysis, trypsin and chymotrypsin;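 further: relative to predicted unfolded state with 0 unfolded-like and 1 meaning tenfold more protease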

| Sequence | protease stability score |
| --- | --- |
| SEEEELSEIASRITIEILKTGDEHMLHELADPNARLDVNGVESHGRESVVKSFRMLGVKHWTLRDVKVVDGRVWIHGELHVDGKTRRLILIVEKINGRWVMEEIRIG | 0.817 |
| SEEEELSHTMWRLWVHAVRTGDFRMLEHLADPHVRDVRNINGVTTRLVGREEWRRIVEEEIDKYPNMRVEFEDVRDVGNYVHAHTKSHYDGKTVDTRVELLVVDGRISDFKLHIE | 1.08 |
| SEEEELTEMVARVIVHSLLTGDEENLDHMLDPNVKIDNDIDGKEERLHGREDRRRVNEEWGWSNIHWIVRRIRTQGNKATVDGEIRFDGVTEHVRLIVILFNGKVHLVRLKHL | 0.77 |
| SEEEELTQELFERFHHVLRTGDWREMVHLADPNARNIFENRTIVGREDVSKILSELLQRVKGIRWHIESIHVQGDFLKLDYRMQVGDKSENVEIHYLKFNGKWILKSIRFE | 1.32 |
| SEEEELTRITEQLMIEHLRTGDWDELQHLLDPDARLHFNGREFIGREIVIKLKLEKLRDLGMTFRDFHIKSWDSQGDKIHLRVREEVEFNGKNIELDVEIIARKVDGKWFIEQIKVR | 1.1 |
| SEEEELVKKATDHWKNVIKTGDEHTIKKLVDPSARIIINGQEHHGRHMIHTLIHLWGVDKIEVHLRHLHMQGDKLEIINEVRVNGQSSTLTTISTKINGVWQFEEVQLE | 0.902 |
| SEEEELVREHIKRVIHSYETGDWKSFLELFDPNVRLRVGDKELHGRELFIHWLVRLIELLGINHFELILHDVELQGNKAHSDIHSNLTVGDKTEHRKVHLFNLKVNGRWRTQSEHIE | 1.36 |
| SEEEELVRQWLERTTEALLTGDEEYVLHLADPRTRFDVGDKEIHGMEEFLKRHLQLRIHHMHWEVTEIRLIDGVARSTGTLEIIMQQGDKRFRVRIRSEVISEKIDGRWRLRSIKIH | 1.44 |
| SEEEELWEELKELSEEWFETGDEDRLLEMADPHVKVVFNGKHEHGREALRLVLETMKRRFKNATYHPHTIELQGEKVFLKIKVRVGDKEQELEIILIIVDGRLKEIRIHIRIK | 2.62 |
| SEEEELWKMVDHLVHEWLRTGDEDTFSHYADPHARSIVNGKELHGREEFSNLVHKLKEQYPNLTLTIDELRSVGDKITLHITEEFNGVRYDVRIYALKVNGKWLHRYVEVR | 1.54 |
| SEEEELWRLAEETSERIIRTGDFTRLEEMIDPDARMHIDGRTHHGRETISKILLHELTRIKNVKFEIKHKSSQGDWVDIDLILRFDGKTEHIRYYVYKINGQWFLHSIEYH | 1.19 |
| SEEEEMAHRVLEILLYALRTGDEKWMRKLVDPNVRLHVNGVEFHGRDEYTKFLHEHINRFDHFHSLTVTEIRHQGDFIVLHTILNIQWDGRSTRIDIHIIVLKVNGRWLLHSSSIE | 1.25 |
| SEEEEMARRFTDRLLHFTQTGDERLVHEFVDPNARDDVNGREFHGWRSIHDIMRRLGIDHIRIRHIEVQGDKVRSHWQYVFNGVILEVEINTEKVDGRWLIKSVTFK | 1.14 |
| SEEEEMDRHYSNLWNHLMFTGDWHWLEKLVDPHTRTIVDGQERHGREEALKVLKEVLEILGADVIRIHEMRYQGEKSNLVIEIKQGDKRLRVVIEVVVIDGVMHSLDLEIRHE | 0.795 |
| SEEEEMIEKLIRLLVKAHETGDWDTEHELMDPHVRIDINGKEIIGREDWHEHVKRMGFKHSRVEIRIRHLTTQGEKIHIHGELRVIYDIDGRTIDRSTEVHYHLRKINGKWLITEIEIR | 1.69 |
| SEEEEMLHHLSERMTRALRTGDWKTLFELLDPNVRYEQGDKELHGREEMVKHIRHAMERVKNIRIEFTHIDTRLIDGRIHVHIDGRDEFNGVRFKKHIIVHIDKIDGKWFTDNFRLIYE | 1.15 |
| SEEEEMLKHALEILTEVTDTGNWEEYEKLLDPDVRVHIGDKTLVGMEEILRYWMEYFKSLGVDHVETRVKEISHQGDKMHMDTTLRIHQGDKDLEFHVEIHAEKVNGRWFIKEINFE | 1.75 |
| SEEEEMLKIALRIMLHTIHTGDEDLFSELADPNVKIKIDGVELVGWEFAHEWMREHIEQVPNVKLKIHSVKTIDGRVDSDLIRIFDGVTHKIRLISHKINGRWLIETITVN | 0.964 |
| SEEEEMNEELIKIVLHSWKTGDEKHLEENFDPNVKLIVGDKRFIGREHLVKLIDHLIKRYPGLTIHLHDVKIQGNYVHLDTRAHFDGQTYNTRSHARKVDGRWYLTHSHIE | 0.125 |
| SEEEEMTRLALEIFHRVYKTGDEDKYRDLADPHVRLVVGDKTFHGREHYLKFFRHIRIHHSHLDDFEIQGDKAILDTTIDVNINGKRHWIKTHVISVKVNGQWRLHSEELS | 0.178 |
| SEEEEMVKIADELIRRSWDTGDEDLFLHLADPNTRIFFNGRTVHGREEVEKMIRHMRIDHYELKRIDVYNGQVVIHGKIEITVNGVTKTHEVDIIIEKINGKWILRSIHHK | 1.11 |
| SEEEEMVKRLVEIIARMLETGDEDTLLELLDPEPRIEIGDKRFHGWEEFHKEEHKRLREMRVNSTHIEDVKVYNGRARIHLRIDGSIDGRRIEMRSHFIVQKINGRWSITSVIIR | 1.52 |
| SEEEEMVKVALELLKHSLETGDERLMLRQIDPHAKFDVDGKEHHGRDVFREIEERVDVLHLDHVEIQHVHIQGNKLHIHLEMRSTFLFNGRTFHYRLHYEIIMFKFNGKWLITSLQLR | 0.485 |
| SEEEENAHKAMRFLEEVMKTGDEKSWLDLFDPDARIIIGDKHHIGWEHIHELMRRIDHIHDFHVHDVRSQGDKVFVDIKIDGIINGRRYRTRIEVIVRKFDGKWHIDHIQHN | 1.2 |
| SEEEENARRAAEHHEHVLKTGDEDHMTRMFDPNVRVRQGDKEIHGREEFRRLFHELVRRYPNLKFELEDVDVFNGKVVVHMIFWVDGRTIEIHWFIDKFDGQWVVEEVEFR | 1.19 |

| Sequence | protease stability score |
| --- | --- |
| SEEEENIEHSLRIMNENLETGDEHSLAELFDPNAKIDIGDKHLHGRETLITHLVLLGIKHSSIINREYHMIGEWAHINGDLRIEIGDKERHHDVRILSRKIDGRWVVTEFHIR | 1.19 |
| SEEEENILIAYRLIMHSVNTGDESSLLELIDPDYRLDVNGVDIHGREEWYRDQKERFRDAGFKHTEFRFRDLRVQGDKVFLDVEITWHVDGKTIRHRVTMIVLKVNGRWLVESFKVK | 1.48 |
| SEEEENSRLLVELYFRWLVTGNEEVHNKYLDPNMRLEIRIGDKTIETHGREEILRAMREWRIRHVELKDRHVQGDKAHIEGTIIIEFDGRDIERHLNIIIVVINGRIHEIQLHVR | 2.79 |
| SEEEENSRRVLELFRRIFETGDEDTSRRLADPDARVEVGEFHSIGRESFARMLHHLWRELRWKDEKIEHIEVQGDKVHVNGINFVIYNGKEINLTVHLEMQKVDGRWHIHHFKIE | 1.67 |
| SEEEEQAKEAVRHFIHKWQTGDEDRLKELLDPHTKIDIGDKHIHGREEATKLIRNELHRIKNIRVELRDIEVRVYDGVIELHIRGLEKYNGQEVHVTIILIFRKINGQWIIQSEHFHID | 1.31 |
| SEEEEQAKRVIDHVTRAIHTGDEDVLRRQFDPHVKIEVGDKDIHGWETMYEILTHIRIETESDVKDFKVQGDKLIMDVRLRFTIRIDGVEIHRQTTTNIIVHKVNGRWQMKKVEIR | 0.409 |
| SEEEEQFKKVFEIVIRFIITGDEHSMLKNADPNARLEIGDKEVIGMENLLERLTRIIDQFKNVRIEFHVKDHDLQGDKLHLETEIVLKFDGRELRIILHIVWTKINGRWIITSLSER | 1.17 |
| SEEEEQLIRMADVFLHLFLTGDEDTLRSLFDPNAKLDINGVHSVGRENVKKAKEEWENKLGVNHHRLHEIRVVNGRTDLDGEVEWDGKRQRVRLVLVLINGRIRHEKIIFE | 1.03 |
| SEEEEQSRIAIELVKEVHDTGDEHLLKRLMDPNAKVDIGDKTHHGREIFSHLVHRWFHTLGVDHVKIHDLDFQGDFMIIHMVEVIGDKHVHVHIYTLKVNGRWYIRHLRVERR | 0.967 |
| SEEEEQSRKIFRLLYKVIETGDEDIFTKLFDPHARLIYNGKEYIGWEEAVQVLRHIRIDREELSVVRINNVNGQVHIHSVSRMDGEINGVEHHTRVELNFIVIKINGRWVIHTWEIRID | 2.35 |
| SEEEEQVERAIKLTEELIDTGNWKEISKLADPNARLNVNGREFHGREMVSENIKRFFEELGVDHIEVKHIRIQGNKVEVDTELRVGDKYHDLHLLFLKVNGQWLLKEVTVR | 1.22 |
| SEEEEQVERFLRLWLHALRTGDEDTHERLMDPNTRIQIGNFIFHGRERALKVVHHLIRQIDHIHDFDIHDVRVQGNKVHVDVRLNTHFDGRTIVLNLHIHIHKVDGRWLFTSLSRE | 1.23 |
| SEEEEQVKEFIERWITMVKTGDEDFARKMADPNVRIEIGDKILHGRENMEHYMRRVIDEWRITHIHVNDSKVYGEYIVNEVHIHVRQGDKHHTINWELHVKKVNGRWRLQNVHFG | 2.24 |
| SEEEEQVKELIKWLIEVWLTGNEEFIRDLADPHVRMHIEQGDKKVDSHGRETLLKDLERYRREIRFEYIEIHDIRIYNGRAEVDGRLFGLINGQRMELNVILIFVVVDGKIREIAVHIR | 0.26 |
| SEEEEQVTESFEHFFRARYTGDEHTLLRMMDPNVRVIVDGKDIHGWEEVIRYLVHIRIKRSELHDREIRVVNGRAIVHLDVHTDREVDGVRIETRIILILYAEKIDGRWVFKEVKIEVR | 1.29 |
| SEEEERAEELVRLWEHDLKTGNEHLLRELMDPNTRLVVNGRHTHGREHAVNILLQFVEEWRIESVHLHRWRVIGDKIDLDIHIHGRINGVEHHIKSILVLVKINGKWLIHTIVIH | 1.02 |
| SEEEERLRENLERWHRALYTGDEEHLFNLADPHARFEIIVDGRDVRIHGRENYLRWVEEFRKELGISRVHTELKSEHVINGRNDEDGLVHINGRSLRVHFHLDVVDGRTKKIHIYVR | 0.779 |
| SEEEERLRRFFEEFIKWHVTGDEEHLERLMDPNAKFIVNGVESHGWENTSRHLKELRIHELNIRRVEIVNGRIHISGLAKGEFNGRHRETTVHIHIVVIDGRVKEMSIEVR | 2.48 |
| SEEEERLRTIAEVLLHLLLTGDEEHLERLMDPHARYEQGDKHAIGREEVSHLFRRLLEHMRTREIHLHRWHSVNGVIYLDTRVIMEVNGRRIDTDTKVVVVVVDGKVRSMRNQFN | 0.113 |
| SEEEERMETLTRLLDHAWHTGDFDFLSKLLDPNTRVVQGEFHHHGRHALRKILHDLNRIMGVDHSDIEDREIQGDKIHIHVRIEVNGRVVDSHINIIVVDGRIKTVEMTIR | -0.216 |
| SEEEERSERSLKHLLKTELTGNEEEFWRLADPNAKIEVIIDGVRISDHGREAIIRLWRFMGFDHLIFRHIHVHIQGDKMDVHIQGESRIGDKEMRTTIFLHVIKINGRWINHTLIIEQK | 1.24 |
| SEEEESAKIAIKVMLHSLHTGDEHTMSRLMDPNAREIINGRHNHGREVILEFLRRLGFTKVEIKDFRLTHMSVQGEFVFVHGTTNGEFNGVDTNVDLEIVVLKVDGRWTIQSVFYR | 1.67 |
| SEEEESAKWFNHVRHEAERTGDEETLLRLLDPSVKSTYGDKTSHGRHEMEEIMKRLGVSRVHLDIRHVEVQGDKVNVDGLVEFDGQEMRVILIVLKIDGRWIAEHVIVH | -0.118 |
| SEEEESARRAWEKILHVLETGDERDSRRLMDPDTKIEQGDKTEHGMEKIAKMITEWRFHDVKLTDMRVIGDKVEIDGTVRGEFDGREYKIHVFILVVKINGRWVIHKTVLG | 1.06 |
| SEEEESERKVLHKFTEAIRTGDEHTLENLIDPNVKIDAENRSHHGMEDWLKWLMELRRRADHIDFRIHSIHTQGDKLHVHSEIIVVQGDKHIHIEISMIINKVNGRWHIHHIELR | 1.29 |
